Results on 18 sequences are retold here after the DeepSol protein solubility set.

This data set is described as follows: soluble on expression in E. coli; label from the status in PepcDB or PDB records.
On to “MGSDKIHHHHHHMALKGKGQAKSPNVDDNPQLGLESEIPVAPRSKRQTRQAEEVQAKDPYLDSVKELDDVLLKFKKYSKSMSSIENKVFSSSGGCFKSKNERVNAYSFTCSSFADKIEEYSYDPANSFPYKRGVKLVLKESSIYVEVGADTDMYGICVDVCEFSSTAYVLPITNNFEGYLVTRNPSIKMGEILDINNNGVIIKAGGGPPTVINAYALSDSFTINFAPEDEHQDQARYPKQEYSINLIKVAIFGNRGLEKTVTPEAGG”, for which the “soluble on expression in E. coli” value was “not soluble”.

Consider “MGSDKIHHHHHHMMAKGTLCVLDPASILVVAPHFKRRLSGVTSTVVQLIPQQRRRGLAIATLGPGLPETMPALTFAQMPALWKKPRGASHRVWHARRNLEMLVGVVLRDVLRMPLKLLFTSAAQRHHSRYTRWLISKMDAVVATSARSGSFLHVPHSVIRHGIDTELFHPPQGAEDRIAATNLPGDYLIGCFGRVRHQKGTDLFVKAMIELLPRYPGWTAVVSGRVTPEHKGFAEGLKAQIAAASLTERIVFLGEVEDIKPWYRRLTLYVAPSRNEGFGLTPLEAMASETVVVASDAGAYAELIAEGATGAVVAADAYAPLRDAIEPYLADPGRACLHGKAAVAHVRENFALAREAAGLEAVYSRLLGRPVIAPPAPQP”, for which the “soluble on expression in E. coli” value was “not soluble”. The entry for “MGSDKIHHHHHHMMNTSTSDPIGAAWLIRYASIELVSPLYITSSIGGRRQTYKEGNVIHNAYQETARPLDTIIAHLQFHMRHEVLNLELLVRLFEQIGADDVQAWVNAEPTGSYARRMAFLYEWLMDKELAVSSNLGGNYVDALDTKKMVTSSPEHIIKNARWRINDNLAGTRHFCPMLVKTEAFTQAAALDIATMVEKLNDEFGQDLLMRASVWMTLRESKASFTIEGEGKELKRIERFAEVMARRTGKGDIPLDPESLAELQQEILGSKTVIQQYGIRQSPVFVSHTQVNGFKEIVHYIAPPSEDIAYKLTGLQALMKKTEGQSALMRSAVASFAFVYIHPLADGNGRVHRFLINDVLRRDQVIHEPIILPISQAIAEHPSDRHAYDKILDRVSVPLMRQIRDHYRFDKQAVTYPDGIRSNLNFADSHLIQPAWRFMDLTPHVQYLSGLIAHVIEKEMHNESQYLRQHDHARLAIKEIVEMPNSYADRIIRSMLQNKGAKSNKLLQDYPFLANEAVWDDVFSVVVEIFK” is “not soluble”. Turning to “MGSDKIHHHHHHMVAMRIAIIGANGQLGTDLVEVFGNDPEFEVVPLTHKDLDVTIPESLKVLKEIKPDVLINTAAYVRVDDAELYPEKAFAVNAIGALNVARIANEIDAVNVYISTDYVFDGEKGEPYTEEDVPNPINVYGVSKYTGEIFTRNYSPKHYIIRVASLYGKAGASGKGGNFVEWVIEKAKHGEELKIVDDQFMSPTYTKDVARTLKEFLKLRSEFGVYHMVNEGFCSWYEFTEAIFDVLGWNVEIKPIKSNELNRLAKRPRFSALKNEKLEKIGLRMRHWREALEEYLKEKGYV”, the “soluble on expression in E. coli” value is on record as “not soluble”.

In the case of “MSWTGRLQCTAAFRNGRTVILDSYNEGALKLMRPVYLNSTYPTLYLVHVGGGYVDGDSYDMEISLEPSARLMVTTQSAAKIYKTPSTPVRQYTRFSLGEQSVLEYFPDPTIAYEHARFVQETTVYITSSSTVVYGEIITPGWSESGELFRYDWIRSKLKVYQDEALVLFDHLYLDSRQHLTSMLQLGGYTHVGSLVALSPFITKEVLERFNQFMEEMPQEVRCGFSAAAVPGFSVRILAYETSAIEAIFQRVQQFIRQQCGEKTPVCWRKY”, the “soluble on expression in E. coli” value is “not soluble”. For “EQSAYRIHSAYMVGGGGSITRDTYLSPLRYGGWTLNLLGEKTFPLKASDSRWMIRTGHELDFALMDNPANNAHFYSLLYNGSAAALYRLGAKHLRAAWMDNLRLAFGPGLEIGLGGIYSTRNGNNPATLKLYTNAIAQASIGYYVPSETFPLYFRLLSQINLFGIAYGNGFGESYYENFLLNNGIAGSLHFTYPGKFTRFTTLITADIPIRNFCTLRVGYRYSHLGSSLNALDTRIHSHTAFIGFVTEFYRFRGRKAMNTGRRTSLYYHD”, the “soluble on expression in E. coli” value is recorded as “not soluble”. “MPFIDIQSKVGINIDKWLLLQSSKQPYRWTTSCHAFEKEWVECSHGIGQIRAQKECKLEYEDFYECMHRNKLRQRLQAIQEQKKKLEKEGVYKAPDFTKDSNTP”: the “soluble on expression in E. coli” value is “not soluble”. Consider “MKYMVVSSPIQEVLRLHKYIEISTTTITVKITNKMSSPVIGITFGNTSSSIAYINPKNDVDVIANPDGERAIPSALSYVGEDEYHGGQALQQLIRNPKNTIINFRDFIGLPFDKCDVSKCANGAPAVEVDGKVGFVISRGEGKEEKLTVDEVVSRHLNRLKLAAEDYIGSAVKEAVLTVPTNFSEEQKTALKASAAKIGLQIVQFINEPSAALLAHAEQFPFEKDVNVVVADFGGIRSDAAAIAVRNGIFTILATAHDLSLGGDNLDTELVEYFASEFQKKYQANPRKNARSLAKLKANSSITKKTLSNATSATISIDSLADGFDYHASINRMRYELVANKVFAQFSSFVDSVIAKAELDPLDIDAVLLTGGVSFTPKLTTNLEYTLPESVEILGPQNKNASNNPNELAASGAALQARLISDYDADELAEALQPVIVNTPHLKKPIGLIGAKGEFHPVLLAETSFPVQKKLTLKQAKGDFLIGVYEGDHHIEEKTLEPIPKEENAEEDDESEWSDDEPEVVREKLYTLGTKLMELGIK”, for which the “soluble on expression in E. coli” value is listed as “not soluble”. For the sequence “SAAVALRDSAQGTVTFEDVAVNFSQEEWSLLSEAQRCLYHDVMLENLTLISSLGCWYGAKDETPSKQTLSIQQESPLRTHWTGVCTKKVHLWGMCGPLLGDILHQGTQHNQKLNGFGAYEKKLDDDANHHQDQKQHIGEKSYRSNAKENE”, the “soluble on expression in E. coli” value is given as “soluble”. Then “MGSDKIHHHHHHMASLPRLYYVTSGLDEANAFATWRAVISPLFEPRPCGPSRKTPTGSAYGIIIGDLVVAKVAFNAQDFVRDAQRIAVTPDHLLLHLYVSGGFNGEVTRQQTVIGPGKVALIDLACPLSTRAFASNTMCLIVPRKLLAGLPLHALKPKLDPLRNDLLAAYIRSLQERSAQLTEADVATTVAETADFLRRLLAPSAEADLAPERSADETILALTEALIRDNLALPELSPDWLAQQLDVSRASLYRLFAERGGVMRYVQERRLLAVQAALADPLETRRLSRLASDLGFKSEAHFSRSFRARFGITASAYRKAQLDASAAIQLTSPAVVQQWWTAVARDPLRHAG”, with “not soluble”; and “MCMDSNVSWMIREKIERTIKNLEKNNIEAYNVKNSKQLIELIDKLIPEGETVAVGGSMTLFETGIIDHIRSKNYNFLDRYKEGLSKEDIKDVFRKSFFADSYIVSTNALTENGELYNVDGNGNRVAAMLFGPDKVIVIAGINKIVKDVDEAIKRNKFVSAPINAKRLNKATPTKVGYCMDCKSQDRICNEYTLIKRQGVKGRIKVIIVEEELGYLEHHHHHH”, with “soluble”; and “FQGAMDPEFSMKIGIIGAMEEEVTLLRDKIENRQTISLGGCEIYTGQLNGTEVALLKSGIGKVAAALGATLLLEHCKPDVIINTGSAGGLAPTLKVGDIVVSDEARYHDADVTAFGYEYGQLPGCPAGFKADDKLIAAAEACIAELNLNAVRGLIVSGDAFINGSVGLAKIRHNFPQAIAVEMEATAIAHVCHNFNVPFVVVRAISDVADQQSHLSFDEFLAVAAKQSSLMVESLVQKLAHG”, with “soluble”. Consider “MSLEVYFSGTIERIIFENPSNFYRILLLEIDDTDAEDFDDFEIIVTGTMADVIEGEDYTFWGQIVQHSKYGEQLQISRYDRAKPTSKGLVKYFSSSHFKGIGLKTAQKIVDTYGENTIDEILQHPEKLEGIAGLSAKNREAFVSTLRLNYGTEMILAKLANYGIPNKLAFQIQDFYKEETLDVVENYPYQLVEDIKGLGFTIADQLAEELGIESQAPERFRAGLVHSLFQACMETGDTYVEARDLLEQTLTLLESSRPVELDPSQVAQELSYLIEEDKVQQIDTKIFDNSLFFAEEGIRSHLVRILEKGKQKSHDLETIQKHITTVEQELGIEYDNIQKQAICDAIQNKVFILTGGPGTGKTTVINGIIAVYALLEGLDFRKKSNLPILLAAPTGRAARRMNELTGLPSATIHRHLGMTGDDDTSHLEDYLDADFIIVDEFSMVDTWLANQLFSNISSNSKILIVGDSDQLPSVSPGQVLADLLHIPLIPQTRLEKIYRQSKESTIVTLASQIRQGILPADFTQKKADRSYFEIASGHIPATIEKILGAALRNGIPARDIQVLAPMYRGTAGIDAINQLMQDLLNPPQKDQLSFEAPQCHYRKRDRVIHLVNDAEINVFNGDLGAITDLIPGKYTESKQDEIVIDFDGNEVSYPRNEWYKIRLAYAMSIHKSQGSEFPVVILPITSASRRMLERNLIYTAITRAKSKLILLGELQAFDYATQHIGTARKTYLIERFSDLLENVEEKQQAVSETVTSSASEQSYILTEENWDRIPAMIGITDTDLKEIFGKEGHHHHHH”, for which the “soluble on expression in E. coli” value is on record as “soluble”.

With “MPKERKERSVSLDKYKRSPLCCEASLALKPSEKQVKEWEEARCPVCMEHPHNGILLICSSYENGCRPYMCDTSHRHSNCFDQFRKASKEKPSLSLLREEEESNEPTEMEDVDSDSTAVNLLGEAASEITVVDLSDGERGEEEVEEEEEEVVVEEEEEGIVTTEEDQEKNKPQKLTCPLCRGHIKEWVVVKAARCFMNSKHRSCSCETCDFSGSYSDLRKHARLLHPGVRPSEADPERQRSWRRLERQSDLGDLLSTLQSSFGGDEISNDDGFLFADTRLLTVYFLIRVFRPESSGSRSSSWSGTSRARTHTSGRRRSSRPASLWGESYEGNTGTSPRDEENNQSSDEQVSGTRRRRSRRRTVIDDDDEEEEP”, the “soluble on expression in E. coli” value is reported as “not soluble”. As for “DITGIPTGFTELDRMTAGFQRNDLIIVAARPSVGKTAFALNIAQNVATKTDESVAIFSLEMGAEQLVMRMLCAEGNINAQNLRTGNLTEEDWGKLTMAMGSLSNSGIYIDDTPGIRVSEIRAKCRRLKQESGLGMILIDYLQLIQGSGRSKDNRQQEVSEISRELKSIARELQVPVIALSQLSRGVEQRQDKRPMMSDI”, the “soluble on expression in E. coli” value was “not soluble”.

On to “APNVDLHCHSTVSDGSMPPAAVARRAHANGVDVWALTDHDEIGGVAEAAQAAAALGMRFVAGVEISVTWAGLTVHIVGLRVDPANEALVQGLRDTRAGRAARAVQIGERLAGLGMPGAYEGALPFAGNPELISRTHFARFLVEAGYCPDVQTVFNKYLGDDCPGHVPMQWASLAEAVGWIRGAGGCAVIAHPGRYKYSPMQFDALYDEFLQLGGTGIEVVTGSHTSEEARRYAEVARRHGFLASRGSDFHSPTESRVDLGRLPPLPPDLKPVWHDW”, for which the “soluble on expression in E. coli” value is recorded as “not soluble”. On to “MEGESVKLSSQTLIQAGDDEKNQRTITVNPAHMGKAFKVMNELRSKQLLCDVMIVAEDVEIEAHRVVLAACSPYFCAMFTGDMSESKAKKIEIKDVDGQTLSKLIDYIYTAEIEVTEENVQVLLPAASLLQLMDVRQNCCDFLQSQLHPTNCLGIRAFADVHTCTDLLQQANAYAEQHFPEVMLGEEFLSLSLDQVCSLISSDKLTVSSEEKVFEAVISWINYEKETRLEHMAKLMEHVRLPLLPRDYLVQTVEEEALIKNNNTCKDFLIEAMKYHLLPLDQRLLIKNPRTKPRTPVSLPK”, for which the “soluble on expression in E. coli” value is reported as “soluble”. Take “MDLTELFAFLSIPSVSTDPARREDVRRAALWLEERLKARGFRTELHETPLHPILYAERFVDEKAPTVLVYGHYDVQPPDPLELWESPPFSPVVREGRIYARGAFDDKGQLFAHVLAAEEAPVNLKFLVEGEEEIGSPHLPPFVRANREKLRADVVLVSDGAMFAPHTPTLTYGLRGLCYLEVRLRGARRDLHSGAFGGVAPNPIQALGWLLARLKDEGTGRVLIPGFYERVRPVPEEEKALWPSLDEEALKRELGVEILPGEEGYAPLERLWARPTLDPNGIWGGYQGEGSKTVIPAEAGMKLSMRLVPDQDPEEVADQAEAYLKAVCPPGYALEVRRLHGGRPVLTDPFSPPMRLMARALEEVWGRPPVYTREGGTIPVVAELKETLGAPIVLLGLGLPDDNLHAPNEKLDLVNLEKGVEVIRRFHRLLAG”: the “soluble on expression in E. coli” value was “soluble”.
